Substrate in this data set: [H][C@]12CC[C@]3([H])[C@]([H])(C[C@H](O)[C@]4(C)C(C(C)CCC(=O)NCCS(=O)(=O)O)CC[C@@]34[H])[C@@]1(C)CC[C@H](OCCNC(=O)CCCc1ccc(N(CCCl)CCCl)cc1)C2
In words: TP_TRANSPORTER: uptake in Xenopus laevis oocytes. It is filed as functional, cell-based, Oocyte.

A word on the Km: it is the concentration of substrate that gives half-maximal velocity.

B1: Hepatic sodium/bile acid cotransporter (Homo sapiens) (protein)
chain: MEAHNASAPFNFTLPPNFGKRPTDLALSVILVFMLFFIMLSLGCTMEFSKIKAHLWKPKGLAIALVAQYGIMPLTAFVLGKVFRLKNIEALAILVCGCSPGGNLSNVFSLAMKGDMNLSIVMTTCSTFCALGMMPLLLYIYSRGIYDGDLKDKVPYKGIVISLVLVLIPCTIGIVLKSKRPQYMRYVIKGGMIIILLCSVAVTVLSAINVGKSIMFAMTPLLIATSSLMPFIGFLLGYVLSALFCLNGRCRRTVSMETGCQNVQLCSTILNVAFPPEVIGPLFFFPLLYMIFQLGEGLLLIAIFWCYEKFKTPKDKTKMIYTAATTEETIPGALGNGTYKGEDCSPCTA
For the protein B1, the Km came to 11 µM.

Source of the values: ChEMBL document CHEMBL2074354, “Chlorambucil-taurocholate is transported by bile acid carriers expressed in human hepatocellular carcinomas” (Gastroenterology, 1997).
